We go through 1 molecule from patent US20160311913A1 (Amgen, published 2016).

This assay concerns the target human CGRP receptor (human, UniProt Q16602 23-461; O60894 27-148). Kind of assay: cell-based or functional assay.

human CGRP receptor, sequence (Q16602 23-461 limits assumed, chain 1 of 2): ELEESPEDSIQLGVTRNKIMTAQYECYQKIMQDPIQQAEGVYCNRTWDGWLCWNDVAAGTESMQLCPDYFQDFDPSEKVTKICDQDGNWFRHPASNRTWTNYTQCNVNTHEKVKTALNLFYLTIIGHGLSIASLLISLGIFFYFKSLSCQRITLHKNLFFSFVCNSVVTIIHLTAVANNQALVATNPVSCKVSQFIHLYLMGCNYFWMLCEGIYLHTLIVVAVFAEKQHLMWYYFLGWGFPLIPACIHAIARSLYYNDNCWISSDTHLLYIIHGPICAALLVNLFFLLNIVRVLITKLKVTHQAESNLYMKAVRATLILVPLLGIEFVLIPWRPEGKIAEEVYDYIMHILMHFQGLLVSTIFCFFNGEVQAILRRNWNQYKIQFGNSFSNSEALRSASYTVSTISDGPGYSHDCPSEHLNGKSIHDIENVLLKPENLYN
human CGRP receptor, sequence (O60894 27-148 limits assumed, chain 2 of 2): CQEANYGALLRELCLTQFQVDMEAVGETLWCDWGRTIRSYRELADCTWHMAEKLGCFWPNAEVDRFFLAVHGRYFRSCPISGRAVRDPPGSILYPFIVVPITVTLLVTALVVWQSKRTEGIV

B1: AMG 334 (antibody, human IgG2, lambda, V domains shown)
VH: QVQLVESGGGVVQPGRSLRLSCAASGFTFSSFGMHWVRQAPGKGLEWVAVISFDGSIKYSVDSVKGRFTISRDNSKNTLFLQMNSLRAEDTAVYYCARDRLNYYDSSGYYHYKYYGMAVWGQGTTVTVSS
VL: QSVLTQPPSVSAAPGQKVTISCSGSSSNIGNNYVSWYQQLPGTAPKLLIYDNNKRPSGIPDRFSGSKSGTSTTLGITGLQTGDEADYYCGTWDSRLSAVVFGGGTKLTVLG
B1: the “serum AMG 334 concentration associated with the half maximal effect (EC50) on capsaicin-induced DBF” value amounted to 0.286 mg/L and the “serum AMG 334 concentration for 50% of maximal inhibition of capsaicin-induced dermal blood flow (EC50)” value stood at 0.218 mg/L.
